A word on the Km: it is the substrate concentration at which the rate is half of its maximum.

One protein from ChEMBL document CHEMBL2074270, “Transport of amphipathic anions by human multidrug resistance protein 3” (Cancer Res, 2000) can be followed below.

Common to all, as to format: functional, cell membranes
Holding throughout (settings): Membrane vesicle

Substrate in data set [1]: N[C@@H](CCC(=O)N[C@H](CSc1ccc([N+](=O)[O-])cc1[N+](=O)[O-])C(=O)NCC(=O)O)C(=O)O
The data set is described as follows: (§1) TP_TRANSPORTER: uptake in membrane vesicles from MRP3-expressing HEK293 cells.

Substrate in data set [2]: CN(Cc1cnc2nc(N)nc(N)c2n1)c1ccc(C(=O)N[C@@H](CCC(=O)O)C(=O)O)cc1
Described as §1.

Substrate in data set [3]: CCCCC/C=C\C/C=C\C=C\C=C\[C@@H](SC[C@@H](NC(=O)CC[C@H](N)C(=O)O)C(=O)NCC(=O)O)[C@@H](O)CCCC(=O)O
The description is as §1.

Substrate in data set [4]: C[C@]12CC[C@@H]3c4ccc(O)cc4CC[C@H]3[C@@H]1CC[C@@H]2O[C@@H]1O[C@H](C(=O)O)[C@@H](O)[C@H](O)[C@H]1O
The description is as §1.

Substrate in data set [5]: C[C@H](CCC(=O)NCC(=O)O)[C@H]1CC[C@H]2[C@@H]3[C@H](O)C[C@@H]4C[C@H](O)CC[C@]4(C)[C@H]3C[C@H](O)[C@]12C
The data set is described as §1.

B1: Multidrug resistance associated protein (Homo sapiens), Q96QA9 (protein)
chain: MDALCGSGELGSKFWDSNLSVHTENPDLTPCFQNSLLAWVPCIYLWVALPCYLLYLRHHCRGYIILSHLSKLKMVLGVLLWCVSWADLFYSFHGLVHGRAPAPVFFVTPLVVGVTMLLATLLIQYERLQGVQSSGVLIIFWFLCVVCAIVPFRSKILLAKAEGEISDPFRFTTFYIHFALVLSALILACFREKPPFFSAKNVDPNPYPETSAGFLSRLFFWWFTKMAIYGYRHPLEEKDLWSLKEEDRSQMVVQQLLEAWRKQEKQTARHKASAAPGKNASGEDEVLLGARPRPRKPSFLKALLATFGSSFLISACFKLIQDLLSFINPQLLSILIRFISNPMAPSWWGFLVAGLMFLCSMMQSLILQHYYHYIFVTGVKFRTGIMGVIYRKALVITNSVKRASTVGEIVNLMSVDAQRFMDLAPFLNLLWSAPLQIILAIYFLWQNLGPSVLAGVAFMVLLIPLNGAVAVKMRAFQVKQMKLKDSRIKLMSEILNGIKVLKLYAWEPSFLKQVEGIRQGELQLLRTAAYLHTTTTFTWMCSPFLVTLITLWVYVYVDPNNVLDAEKAFVSVSLFNILRLPLNMLPQLISNLTQASVSLKRIQQFLSQEELDPQSVERKTISPGYAITIHSGTFTWAQDLPPTLHSLDIQVPKGALVAVVGPVGCGKSSLVSALLGEMEKLEGKVHMKGSVAYVPQQAWIQNCTLQENVLFGKALNPKRYQQTLEACALLADLEMLPGGDQTEIGEKGINLSGGQRQRVSLARAVYSDADIFLLDDPLSAVDSHVAKHIFDHVIGPEGVLAGKTRVLVTHGISFLPQTDFIIVLADGQVSEMGPYPALLQRNGSFANFLCNYAPDEDQGHLEDSWTALEGAEDKEALLIEDTLSNHTDLTDNDPVTYVVQKQFMRQLSALSSDGEGQGRPVPRRHLGPSEKVQVTEAKADGALTQEEKAAIGTVELSVFWDYAKAVGLCTTLAICLLYVGQSAAAIGANVWLSAWTNDAMADSRQNNTSLRLGVYAALGILQGFLVMLAAMAMAAGGIQAARVLHQALLHNKIRSPQSFFDTTPSGRILNCFSKDIYVVDEVLAPVILMLLNSFFNAISTLVVIMASTPLFTVVILPLAVLYTLVQRFYAATSRQLKRLESVSRSPIYSHFSETVTGASVIRAYNRSRDFEIISDTKVDANQRSCYPYIISNRWLSIGVEFVGNCVVLFAALFAVIGRSSLNPGLVGLSVSYSLQVTFALNWMIRMMSDLESNIVAVERVKEYSKTETEAPWVVEGSRPPEGWPPRGEVEFRNYSVRYRPGLDLVLRDLSLHVHGGEKVGIVGRTGAGKSSMTLCLFRILEAAKGEIRIDGLNVADIGDPILFSGTLRMNLDPFGSYSEEDIWWALELSHLHTFVSSQPAGLDFQCSEGGENLSVGQRQLVCLARALLRKSRILVLDEATAAIDLETDNLIQATIRTQFDTCTVLTIAHRLNTIMDYTRVLVLDKGVVAEFDSPANLIAARGIFYGMARDAGLA
Consider B1, for which the Km came out at 5.7 µM in data set [1]; 776 µM in data set [2]; 5.3 µM in data set [3]; 25.6 µM in data set [4]; 248 µM in data set [5].
